Values quoted from earlier work in publication PMC2679154.
pKd: −log10 of the molar value.

Target: IGF-IR (Homo sapiens) (UniProt P08069)
UniProt P08069, sequence (P08069 31-736, chain 1 of 2): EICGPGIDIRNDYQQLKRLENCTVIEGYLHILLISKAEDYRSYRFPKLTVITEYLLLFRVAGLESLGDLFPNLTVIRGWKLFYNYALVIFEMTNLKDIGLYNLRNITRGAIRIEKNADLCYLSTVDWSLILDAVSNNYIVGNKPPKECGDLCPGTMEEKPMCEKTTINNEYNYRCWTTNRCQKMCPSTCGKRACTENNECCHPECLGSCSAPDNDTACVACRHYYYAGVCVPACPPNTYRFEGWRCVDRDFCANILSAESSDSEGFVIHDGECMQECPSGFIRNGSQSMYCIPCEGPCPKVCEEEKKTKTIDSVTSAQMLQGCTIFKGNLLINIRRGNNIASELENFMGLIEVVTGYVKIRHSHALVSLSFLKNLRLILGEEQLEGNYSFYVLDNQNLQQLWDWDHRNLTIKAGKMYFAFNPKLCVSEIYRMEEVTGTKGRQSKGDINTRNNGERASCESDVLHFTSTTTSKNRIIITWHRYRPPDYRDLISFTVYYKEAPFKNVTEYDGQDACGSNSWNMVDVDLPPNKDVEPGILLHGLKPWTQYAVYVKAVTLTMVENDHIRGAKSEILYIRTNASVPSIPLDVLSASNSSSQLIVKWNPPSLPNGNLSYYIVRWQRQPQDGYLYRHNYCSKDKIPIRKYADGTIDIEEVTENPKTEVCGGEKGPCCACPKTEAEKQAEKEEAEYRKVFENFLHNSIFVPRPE
UniProt P08069, sequence (P08069 741-935, chain 2 of 2): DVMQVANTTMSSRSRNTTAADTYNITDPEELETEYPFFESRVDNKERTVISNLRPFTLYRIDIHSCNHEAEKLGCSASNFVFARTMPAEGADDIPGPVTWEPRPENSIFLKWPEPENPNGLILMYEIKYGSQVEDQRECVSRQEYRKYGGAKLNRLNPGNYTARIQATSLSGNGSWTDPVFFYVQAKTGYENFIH

## insulin (from UniProt P01308)
  pKd: 7.00
